Source: the supplement of paper PMC5998384

What was measured:
HeLa Kyoto [1] = test: solubility in G1/S (NP-40 vs SDS abundance) (log2 ratio); higher = more soluble; conditions: cell cycle stage: G1/S
HeLa Kyoto [2] = test: melting temperature (median over replicates), in situ; higher = more thermally stable
HeLa Kyoto [3] = test: thermal stability score vs G1/S (z-score of summed log2 fold changes over temperatures); higher = more thermally stable than in G1/S
HeLa Kyoto [4] = test: solubility change mitosis vs G1/S (difference of NP-40 vs SDS log2 ratios) (log2 ratio difference); higher = more soluble in mitosis
[5] = cell cycle stage: early G1 (4.5 h after nocodazole release)
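Wherever melting temperature (median over replicates), in situ is given: HeLa Kyoto cells synchronized by double thymidine or nocodazole block, proteins quantified by TMT10plex mass spectrometry, three independent biological replicates.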
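Wherever solubility change mitosis vs G1/S (difference of NP-40 vs SDS log2 ratios) is given: synchronized HeLa Kyoto cells (double thymidine block for G1/S, nocodazole release for mitosis), protein amounts in NP-40 versus SDS lysates quantified by mass spectrometry, three biological replicates.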
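Wherever solubility in G1/S (NP-40 vs SDS abundance) is given: HeLa Kyoto cells arrested at G1/S by double thymidine block, proteins quantified by TMT10plex mass spectrometry in mild NP-40 versus SDS extracts, three biological replicates.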
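Wherever thermal stability score vs G1/S (z-score of summed log2 fold changes over temperatures) is given: synchronized HeLa Kyoto cells, proteins quantified by TMT10plex mass spectrometry, three biological replicates, mitosis taken 0.5 h after nocodazole release, G1/S directly after double thymidine block.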

Sequence	solubility in G1/S (log2) (HeLa Kyoto [1])	melting temperature (HeLa Kyoto [2]; cell cycle stage: G1/S)	melting temperature (HeLa Kyoto [2]; cell cycle stage: mitosis)	thermal stability score (HeLa Kyoto [3]; [5])	thermal stability score (HeLa Kyoto [3]; cell cycle stage: mitosis)	solubility change mitosis (log2) (HeLa Kyoto [4])
MDESALLDLLECPVCLERLDASAKVLPCQHTFCKRCLLGIVGSRNELRCPECRTLVGSGVEELPSNILLVRLLDGIKQRPWKPGPGGGSGTNCTNALRSQSSTVANCSSKDLQSSQGGQQPRVQSWSPPVRGIPQLPCAKALYNYEGKEPGDLKFSKGDIIILRRQVDENWYHGEVNGIHGFFPTNFVQIIKPLPQPPPQCKALYDFEVKDKEADKDCLPFAKDDVLTVIRRVDENWAEGMLADKIGIFPISYVEFNSAAKQLIEWDKPPVPGVDAGECSSAAAQSSTAPKHSDTKKNTKKRHSFTSLTMANKSSQASQNRHSMEISPPVLISSSNPTAAARISELSGLSCSAPSQVHISTTGLIVTPPPSSPVTTGPSFTFPSDVPYQAALGTLNPPLPPPPLLAATVLASTPPGATAAAAAAGMGPRPMAGSTDQIAHLRPQTRPSVYVAIYPYTPRKEDELELRKGEMFLVFERCQDGWFKGTSMHTSKIGVFPGNYVAPVTRAVTNASQAKVPMSTAGQTSRGVTMVSPSTAGGPAQKLQGNGVAGSPSVVPAAVVSAAHIQTSPQAKVLLHMTGQMTVNQARNAVRTVAAHNQERPTAAVTPIQVQNAAGLSPASVGLSHHSLASPQPAPLMPGSATHTAAISISRASAPLACAAAAPLTSPSITSASLEAEPSGRIVTVLPGLPTSPDSASSACGNSSATKPDKDSKKEKKGLLKLLSGASTKRKPRVSPPASPTLEVELGSAELPLQGAVGPELPPGGGHGRAGSCPVDGDGPVTTAVAGAALAQDAFHRKASSLDSAVPIAPPPRQACSSLGPVLNESRPVVCERHRVVVSYPPQSEAELELKEGDIVFVHKKREDGWFKGTLQRNGKTGLFPGSFVENI [SH3RF1]	0.517	49.3 °C	51 °C	0.34	1.14	-0.13
MDFEDDYTHSACRNTYQGFNGMDRDYGPGSYGGMDRDYGHGSYGGQRSMDSYLNQSYGMDNHSGGGGGSRFGPYESYDSRSSLGGRDLYRSGYGFNEPEQSRFGGSYGGRFESSYRNSLDSFGGRNQGGSSWEAPYSRSKLRPGFMEDRGRENYSSYSSFSSPHMKPAPVGSRGRGTPAYPESTFGSRNYDAFGGPSTGRGRGRGHMGDFGSIHRPGIVVDYQNKSTNVTVAAARGIKRKMMQPFNKPSGTFIKKPKLAKPMEKISLSKSPTKTDPKNEEEEKRRIEARREKQRRRREKNSEKYGDGYRMAFTCSFCKFRTFEEKDIELHLESSSHQETLDHIQKQTKFDKVVMEFLHECMVNKFKKTSIRKQQTNNQTEVVKIIEKDVMEGVTVDDHMMKVETVHCSACSVYIPALHSSVQQHLKSPDHIKGKQAYKEQIKRESVLTATSILNNPIVKARYERFVKGENPFEIQDHSQDQQIEGDEEDEEKIDEPIEEEEDEDEEEEAEEVGEVEEVEEVEEVREGGIEGEGNIQGVGEGGEVGVVGEVEGVGEVEEVEELEEETAKEEPADFPVEQPEEN [ZNF326]	-0.456	47 °C	49.1 °C	3.18	7.29	0.239
MDFQHRPGGKTGSGGVASSSESNRDRRERLRQLALETIDINKDPYFMKNHLGSYECKLCLTLHNNEGSYLAHTQGKKHQTNLARRAAKEAKEAPAQPAPEKVKVEVKKFVKIGRPGYKVTKQRDSEMGQQSLLFQIDYPEIAEGIMPRHRFMSAYEQRIEPPDRRWQYLLMAAEPYETIAFKVPSREIDKAEGKFWTHWNRETKQFFLQFHFKMEKPPAPPSLPAGPPGVKRPPPPLMNGLPPRPPLPESLPPPPPGGLPLPPMPPTGPAPSGPPGPPQLPPPAPGVHPPAPVVHPPASGVHPPAPGVHPPAPGVHPPAPGVHPPTSGVHPPAPGVHPPAPGVHPPAPGVHPPAPGVHPPAPGVHPPPSAGVHPQAPGVHPAAPAVHPQAPGVHPPAPGMHPQAPGVHPQPPGVHPSAPGVHPQPPGVHPSNPGVHPPTPMPPMLRPPLPSEGPGNIPPPPPTN [SF3A2]	0.0115	50 °C	50.5 °C	-1.16	-1.41	0.322
MDGEEQQPPHEANVEPVVPSEASEPVPRVLSGDPQNLSDVDAFNLLLEMKLKRRRQRPNLPRTVTQLVAEDGSRVYVVGTAHFSDDSKRDVVKTIREVQPDVVVVELCQYRVSMLKMDESTLLREAQELSLEKLQQAVRQNGLMSGLMQMLLLKVSAHITEQLGMAPGGEFREAFKEASKVPFCKFHLGDRPIPVTFKRAIAALSFWQKVRLAWGLCFLSDPISKDDVERCKQKDLLEQMMAEMIGEFPDLHRTIVSERDVYLTYMLRQAARRLELPRASDAEPRKCVPSVVVGVVGMGHVPGIEKNWSTDLNIQEIMTVPPPSVSGRVSRLAVKAAFFGLLGYSLYWMGRRTASLVLSLPAAQYCLQRVTEARHK [TRABD]	0.184	52.2 °C	50.2 °C	0.0844	0.106	0.0374
MDKQNSQMNASHPETNLPVGYPPQYPPTAFQGPPGYSGYPGPQVSYPPPPAGHSGPGPAGFPVPNQPVYNQPVYNQPVGAAGVPWMPAPQPPLNCPPGLEYLSQIDQILIHQQIELLEVLTGFETNNKYEIKNSFGQRVYFAAEDTDCCTRNCCGPSRPFTLRIIDNMGQEVITLERPLRCSSCCCPCCLQEIEIQAPPGVPIGYVIQTWHPCLPKFTIQNEKREDVLKISGPCVVCSCCGDVDFEIKSLDEQCVVGKISKHWTGILREAFTDADNFGIQFPLDLDVKMKAVMIGACFLIDFMFFESTGSQEQKSGVW [PLSCR1]	0.1	57.7 °C	57.2 °C	-0.835	-1.61	-0.349
MDLFGDLPEPERSPRPAAGKEAQKGPLLFDDLPPASSTDSGSGGPLLFDDLPPASSGDSGSLATSISQMVKTEGKGAKRKTSEEEKNGSEELVEKKVCKASSVIFGLKGYVAERKGEREEMQDAHVILNDITEECRPPSSLITRVSYFAVFDGHGGIRASKFAAQNLHQNLIRKFPKGDVISVEKTVKRCLLDTFKHTDEEFLKQASSQKPAWKDGSTATCVLAVDNILYIANLGDSRAILCRYNEESQKHAALSLSKEHNPTQYEERMRIQKAGGNVRDGRVLGVLEVSRSIGDGQYKRCGVTSVPDIRRCQLTPNDRFILLACDGLFKVFTPEEAVNFILSCLEDEKIQTREGKSAADARYEAACNRLANKAVQRGSADNVTVMVVRIGH [ILKAP]	0.239	49.3 °C	49.8 °C	0.735	1.5	-0.0534
MDLLQFLAFLFVLLLSGMGATGTLRTSLDPSLEIYKKMFEVKRREQLLALKNLAQLNDIHQQYKILDVMLKGLFKVLEDSRTVLTAADVLPDGPFPQDEKLKDAFSHVVENTAFFGDVVLRFPRIVHYYFDHNSNWNLLIRWGISFCNQTGVFNQGPHSPILSLMAQELGISEKDSNFQNPFKIDRTEFIPSTDPFQKALREEEKRRKKEEKRKEIRKGPRISRSQSEL [CCDC134]	0.505	51.7 °C	53.3 °C	1.83	1.3	0.012
MDLSELERDNTGRCRLSSPVPAVCRKEPCVLGVDEAGRGPVLGPMVYAICYCPLPRLADLEALKVADSKTLLESERERLFAKMEDTDFVGWALDVLSPNLISTSMLGRVKYNLNSLSHDTATGLIQYALDQGVNVTQVFVDTVGMPETYQARLQQSFPGIEVTVKAKADALYPVVSAASICAKVARDQAVKKWQFVEKLQDLDTDYGSGYPNDPKTKAWLKEHVEPVFGFPQFVRFSWRTAQTILEKEAEDVIWEDSASENQEGLRKITSYFLNEGSQARPRSSHRYFLERGLESATSL [RNASEH2A]	0.206	49.9 °C	50.5 °C	0.166	0.422	-0.012
MDMLDPGLDPAASATAAAAASHDKGPEAEEGVELQEGGDGPGAEEQTAVAITSVQQAAFGDHNIQYQFRTETNGGQVTYRVVQVTDGQLDGQGDTAGAVSVVSTAAFAGGQQAVTQVGVDGAAQRPGPAAASVPPGPAAPFPLAVIQNPFSNGGSPAAEAVSGEARFAYFPASSVGDTTAVSVQTTDQSLQAGGQFYVMMTPQDVLQTGTQRTIAPRTHPYSPKIDGTRTPRDERRRAQHNEVERRRRDKINNWIVQLSKIIPDCNADNSKTGASKGGILSKACDYIRELRQTNQRMQETFKEAERLQMDNELLRQQIEELKNENALLRAQLQQHNLEMVGEGTRQ [USF2]	-0.0293	54 °C	54.6 °C	-0.00434	-0.248	0.142
MDPARKAGAQAMIWTAGWLLLLLLRGGAQALECYSCVQKADDGCSPNKMKTVKCAPGVDVCTEAVGAVETIHGQFSLAVRGCGSGLPGKNDRGLDLHGLLAFIQLQQCAQDRCNAKLNLTSRALDPAGNESAYPPNGVECYSCVGLSREACQGTSPPVVSCYNASDHVYKGCFDGNVTLTAANVTVSLPVRGCVQDEFCTRDGVTGPGFTLSGSCCQGSRCNSDLRNKTYFSPRIPPLVRLPPPEPTTVASTTSVTTSTSAPVRPTSTTKPMPAPTSQTPRQGVEHEASRDEEPRLTGGAAGHQDRSNSGQYPAKGGPQQPHNKGCVAPTAGLAALLLAVAAGVLL [LYPD3]	-0.405	56.9 °C	–	-2.56	3.5	-0.185
MDPLGDTLRRLREAFHAGRTRPAEFRAAQLQGLGRFLQENKQLLHDALAQDLHKSAFESEVSEVAISQGEVTLALRNLRAWMKDERVPKNLATQLDSAFIRKEPFGLVLIIAPWNYPLNLTLVPLVGALAAGNCVVLKPSEISKNVEKILAEVLPQYVDQSCFAVVLGGPQETGQLLEHRFDYIFFTGSPRVGKIVMTAAAKHLTPVTLELGGKNPCYVDDNCDPQTVANRVAWFRYFNAGQTCVAPDYVLCSPEMQERLLPALQSTITRFYGDDPQSSPNLGRIINQKQFQRLRALLGCGRVAIGGQSDESDRYIAPTVLVDVQEMEPVMQEEIFGPILPIVNVQSLDEAIEFINRREKPLALYAFSNSSQVVKRVLTQTSSGGFCGNDGFMHMTLASLPFGGVGASGMGRYHGKFSFDTFSHHRACLLRSPGMEKLNALRYPPQSPRRLRMLLVAMEAQGCSCTLL [ALDH3B1]	0.252	52.2 °C	51.8 °C	0.958	1.14	-0.152
MDPQRSPLLEVKGNIELKRPLIKAPSQLPLSGSRLKRRPDQMEDGLEPEKKRTRGLGATTKITTSHPRVPSLTTVPQTQGQTTAQKVSKKTGPRCSTAIATGLKNQKPVPAVPVQKSGTSGVPPMAGGKKPSKRPAWDLKGQLCDLNAELKRCRERTQTLDQENQQLQDQLRDAQQQVKALGTERTTLEGHLAKVQAQAEQGQQELKNLRACVLELEERLSTQEGLVQELQKKQVELQEERRGLMSQLEEKERRLQTSEAALSSSQAEVASLRQETVAQAALLTEREERLHGLEMERRRLHNQLQELKGNIRVFCRVRPVLPGEPTPPPGLLLFPSGPGGPSDPPTRLSLSRSDERRGTLSGAPAPPTRHDFSFDRVFPPGSGQDEVFEEIAMLVQSALDGYPVCIFAYGQTGSGKTFTMEGGPGGDPQLEGLIPRALRHLFSVAQELSGQGWTYSFVASYVEIYNETVRDLLATGTRKGQGGECEIRRAGPGSEELTVTNARYVPVSCEKEVDALLHLARQNRAVARTAQNERSSRSHSVFQLQISGEHSSRGLQCGAPLSLVDLAGSERLDPGLALGPGERERLRETQAINSSLSTLGLVIMALSNKESHVPYRNSKLTYLLQNSLGGSAKMLMFVNISPLEENVSESLNSLRFASKVNQCVIGTAQANRK [KIFC1]	0.0107	47.4 °C	48.8 °C	3.16	4.4	0.12
MDQEPVGGVERGEAVAASGAAAAAAFGESAGQMSNERGFENVELGVIGKKKKVPRRVIHFVSGETMEEYSTDEDEVDGLEKKDVLPTVDPTKLTWGPYLWFYMLRAATSTLSVCDFLGEKIASVLGISTPKYQYAIDEYYRMKKEEEEEEEENRMSEEAEKQYQQNKLQTDSIVQTDQPETVISSSFVNVNFEMEGDSEVIMESKQNPVSVPP [FAM177A1]	0.0523	54.5 °C	56.5 °C	0.512	-0.398	-0.0492
